Experimental data as given in patent US20140018290A1 (Novo Nordisk, published 2014).
Each block holds one binder with its values, some of them ahead of it.

Experiments:
human Leptin receptor [1] = target: T1, human Leptin receptor (human, UniProt P48357 22-1165); assay: cell-based or functional assay
T1 sequence (looked up): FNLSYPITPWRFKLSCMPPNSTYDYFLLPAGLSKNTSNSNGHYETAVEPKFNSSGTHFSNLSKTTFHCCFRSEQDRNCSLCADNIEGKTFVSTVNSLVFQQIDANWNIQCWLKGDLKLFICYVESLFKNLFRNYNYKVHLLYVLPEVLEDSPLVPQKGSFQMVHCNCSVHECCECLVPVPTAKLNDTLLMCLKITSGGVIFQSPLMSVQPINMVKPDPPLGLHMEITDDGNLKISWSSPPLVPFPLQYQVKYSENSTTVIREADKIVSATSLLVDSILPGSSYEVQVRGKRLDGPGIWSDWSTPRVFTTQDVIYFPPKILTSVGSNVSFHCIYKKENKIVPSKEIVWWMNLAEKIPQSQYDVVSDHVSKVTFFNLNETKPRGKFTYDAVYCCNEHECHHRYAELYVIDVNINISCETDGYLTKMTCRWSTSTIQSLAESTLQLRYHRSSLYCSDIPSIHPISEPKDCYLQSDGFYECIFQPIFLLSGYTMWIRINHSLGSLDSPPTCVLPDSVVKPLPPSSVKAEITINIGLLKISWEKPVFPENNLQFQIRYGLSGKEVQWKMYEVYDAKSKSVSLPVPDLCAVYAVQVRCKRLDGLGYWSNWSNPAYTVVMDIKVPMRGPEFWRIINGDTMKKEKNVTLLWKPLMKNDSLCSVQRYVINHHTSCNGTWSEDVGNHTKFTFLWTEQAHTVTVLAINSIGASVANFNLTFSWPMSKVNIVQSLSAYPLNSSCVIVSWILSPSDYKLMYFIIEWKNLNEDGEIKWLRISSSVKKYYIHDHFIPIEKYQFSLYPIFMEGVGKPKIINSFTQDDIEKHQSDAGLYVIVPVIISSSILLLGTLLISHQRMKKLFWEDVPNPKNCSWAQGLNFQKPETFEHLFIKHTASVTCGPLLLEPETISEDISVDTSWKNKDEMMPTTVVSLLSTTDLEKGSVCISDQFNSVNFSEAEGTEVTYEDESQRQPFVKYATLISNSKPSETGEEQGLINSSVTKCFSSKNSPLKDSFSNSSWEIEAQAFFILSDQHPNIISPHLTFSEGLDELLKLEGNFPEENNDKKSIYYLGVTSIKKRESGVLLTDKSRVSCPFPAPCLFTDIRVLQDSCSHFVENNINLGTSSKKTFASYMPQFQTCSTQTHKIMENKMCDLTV

human Leptin receptor [2] = target: T1, human Leptin receptor; assay: SPA, displacement of human [125I]-Leptin from human Leptin receptor membranes, 0% HSA added; mean, n=3
Procedure: (§1) Human Leptin receptor SPA binding assay were performed in white 96-well plates in a total volume of 200 μl per well. Wheat germ agglutinin coated beads containing scintillation liquid were reconstituted in binding buffer (50 mM Hepes, 1 mM CaCl₂, 5 mM MgCl₂, 0.02% Tween 20, 0.25% Ovalbumin pH 7.4) and mixed with membrane preparation to give final concentration of 1 mg beads and 10 μg total protein per well. 50.000 cpm per well of radio ligand human [¹²⁵I]-Leptin was added corresponding to a concentration of approximately […]. Human serum albumin was added to a final concentration of 2% when binding in presence of albumin was investigated. Freeze dried Leptin analogues were dissolved in PBS to 100 μM and serial diluted in binding buffer to give a final assay concentration ranging from 100 nM to […]. The plate was sealed and incubated at +25° C. for 2 hours in a plate shaker set at 400 rpm and thereafter centrifuged at 1500 rpm for 10 minutes prior to reading of luminescence on a microplate scintillation and luminescence counter. Displacement of radioligand was measured as reduction in luminescence and IC₅₀ values were calculated by nonlinear regression analysis of sigmoidal dose-response curves.

human Leptin receptor [3] = target: T1, human Leptin receptor; assay: SPA, displacement of human [125I]-Leptin from human Leptin receptor membranes, 2% HSA added; mean, n=3
Procedure: as §1

human Leptin receptor [4] = target: T1, human Leptin receptor; assay: whole cell binding, displacement of [125I]-hLeptin on HEK293 cells expressing human Leptin receptor; mean, n=4
Procedure: HEK293 cells stably expressing the human Leptin receptor were seeded in poly-D-lysine coated 24 well plates at 200.000 cells per well and cultured for two days in alpha-minimum essential medium (MEM), cell culture media containing 10% heat inactivated fetal calf serum (FCS), 1% penicillin-streptomycin (P/S), 1 mg/ml Zeocin and 1 mg/ml G418 antibiotic at +37° C. in a humidified atmosphere with 5% CO₂. Prior to the experiment, cells were rinsed in pure MEM medium, followed by incubation in Leptin analogues at 10,3,1,0.3,0.1,0.03 and 0.01 nM concentrations for 45 minutes in MEM containing 0.005% polysorbate 20 and 0.1% ovalbumin and [¹²⁵I]-hLeptin 100000 cpm. The cells were washed three times in ice cold MEM and were lysed in lysis buffer containing 1.0% nonidet P-40, 0.5% triton X-100 (C₁₄H₂₂O(C₂H₄O)ₙ) and 1M sodium hydroxide. Samples are transferred to plastic

Luciferase assay, Mean EC50 nM, 0% HSA added (human Leptin receptor [1]): 0.24 nM | Luciferase assay, Mean IC50 nM, 0.7% HSA added (human Leptin receptor [1]): 0.42 nM | IC50 (human Leptin receptor [2]): 0.38 nM | IC50 (human Leptin receptor [3]): 5.93 nM
B1: Compound C (protracted rat Leptin: rat Leptin alkylated with compound 2 at the N-terminal amino group) (ligand)
chain: VPIHKVQDDTKTLIKTIVTRINDISHTQSVSARQRVTGLDFIPGLHPILSLSKMDQTLAVYQQILTSLPSQNVLQIAHDLENLRDLLHLLAFSKSCSLPQTRGLQKPESLDGVLEASLYSTEVVALSRLQGSLQDILQQLDLSPEC
modifications: N-terminal amino group alkylated with compound 2 (protractor group: C18 diacid (17-carboxyheptadecanoyl)-gamma-Glu-OEG-OEG-4-formylbenzylamide, attached by reductive alkylation)
notes: also called protracted rLeptin

Luciferase assay, Mean EC50 nM, 0% HSA added (human Leptin receptor [1]): 0.41 nM | Luciferase assay, Mean IC50 nM, 0.7% HSA added (human Leptin receptor [1]): 0.52 nM | IC50 (human Leptin receptor [2]): 0.49 nM | IC50 (human Leptin receptor [3]): 0.88 nM | IC50 (human Leptin receptor [4]): 1.01 nM
B2: Rat Leptin (ligand)
chain: B1 chain
notes: also called rLeptin; wt rat Leptin

Luciferase assay, Mean EC50 nM, 0% HSA added (human Leptin receptor [1]): 1.57 nM | Luciferase assay, Mean IC50 nM, 0.7% HSA added (human Leptin receptor [1]): 1.92 nM | IC50 (human Leptin receptor [2]): 1.9 nM | IC50 (human Leptin receptor [3]): 37.1 nM | IC50 (human Leptin receptor [4]): 1.76 nM
B3: Compound A (protracted rat Leptin: rat Leptin alkylated with compound 1 at the N-terminal amino group) (ligand)
chain: B1 chain
modifications: N-terminal amino group alkylated with compound 1 (protractor group with 16-(tetrazol-5-yl)hexadecanoylsulfamoyl-butyryl, two Glu, OEG, Gly and an aldehyde-derived anchor)
notes: Mw 17190 g/mol
